According to patent US11110182B2, “Multifunctional RNA nanoparticles and methods for treating cancer and therapeutic resistant cancer” (University of Cincinnati, priority 2016, dated 2021):

Test system: HER2-overexpressing BT474 cells
Assay: pRNA nanoparticle cellular uptake assay (confocal, flow cytometry), BT474
Assay type: cell-based, human
Conditions: for cellular uptake by flow cytometry: BT474, 3 h incubation at 37° C.; for binding and internalization into cells: BT474, AF647-conjugated, 10 μg/mL, confocal microscopy
Procedure: FIG. 2A) Confocal microscopy analyses of the internalization of AF647-labeled control and pRNA-HER2apt-siMED1 nanoparticles by BT474 cells. Scale bar: 10 μm. FIG. 2B) Flow cytometry assays of the cellular uptake of AF647-labeled control and pRNA-HER2apt-siMED1 nanoparticles by BT474 cells. FIG. 2C) IVIS Lumina live imaging of BT474 orthotopic xenograft mice 24 hrs after i.v. injection of indicated AF647-labeled pRNA nanoparticles (10 mg/Kg). FIG. 2D) Major organs and tumors of above mice were excised and imaged for AF647 fluorescence. FIG. 2E) Frozen tumor sections were examined for localization of AF647-labeled pRNA nanoparticles (red) using confocal microscopy. The blood vessels were stained with anti-CD31 primary antibody and Alexa488-conjugated secondary antibody (green). The nuclei were stained with DAPI (blue). Scale bar: 50 μm. FIG. 2F) The fluorescence intensity of AF647-labeled pRNA nanoparticles (red) in frozen tumor sections was quantified with Image-pro Plus software.
Cell culture. Human breast cancer luciferase-overexpressing BT474 and MDA-MB-231 cells were maintained in DMEM medium (Hyclone, Thermo Scientific) supplemented with 10% fetal bovine serum (FBS, Sigma) and 1% penicillin/streptomycin (Corning) at 37° C. in a humidified atmosphere with 5% CO2.^53 • Generation of pRNA nanoparticles. The two strands of pRNA were synthesized with the DNA templates, which were amplified with overlapping primers (Sigma) by PCR methods, using a T7 promoter-controlled in vitro RNA transcription system as previously described^33 (Table 1). All the CTP and UTP used for synthesis of the pRNA nanoparticles were 2′-fluoro modified, except the control unmodified pRNA nanoparticles used in the stability assays. Following an overnight transcription at 37° C., RNA strands were purified using RNA clean and concentrator kits (ZYMO research) and examined by 8 M urea denatured 8% PAGE gel. pRNA nanoparticles were assembled by mixing the equal molar amounts of p1 and p2 strands and gradually annealing from 90° C. to 20° C. in 1×RNA annealing buffer containing 50 mM Tris-HCl (pH 7.5), 50 mM NaCl and 1 mM EDTA on a PCR machine. […] The hydrodynamic diameter and Tm value of pRNA nanoparticles were determined using dynamic light scattering and TGGE assay, respectively, as previously described.^54 The AFM imaging of the pRNA nanoparticles was performed at the University of Nebraska Medical Center imaging facility as previously reported.^55 Briefly, the pRNA nanoparticles (5 μL) were deposited on APS modified mica ^56 for a total of 2 min of incubation time. […]

B1: pRNA-HER2apt-siMED1: 3-WJ pRNA nanoparticle bearing a HER2-targeting RNA aptamer and two different MED1 siRNAs; strands p1 SEQ ID NO: 3, p2 SEQ ID NO: 4 (nucleic acid)
chain 1: GGACAGUGAAAGUGAGUCAAAGGAUCAAUCAUGGCCAAAGAUGUUACUUUGAGAGCCUU
chain 2: GGCUCUCAAAGUAACAUCUAAGGCCAUGUGUAUGUGGGGGGAGGACGAUGCGGUCUGCUGUGCUUGAUAUGCCCCAGACGACUCGCCCCCCACAUACUUUGUUGAUCCAAUGACUCACUUUCACUGUCCUU
modifications: 2'-F modification; third strand may lack entry; pRNA-HER2apt-siMED1, p1; pRNA-HER2apt-siMED1, p2
Q: How did the “cellular uptake by flow cytometry” value turn out when B1 was run?
A: effectively taken up

Q: What about the “binding and internalization into cells” value of the same molecule?
A: can bind and be readily internalized

B2: pRNA-HER2apt^mut-siMED1: control pRNA nanoparticle with mutant HER2 aptamer; strands p1 SEQ ID NO: 5, p2 SEQ ID NO: 6 (nucleic acid)
chain 1: B1 chain 1
chain 2: GGCUCUCAAAGUAACAUCUAAGGCCAUGUGUAUGUGGGAUGAGGAGUAUGAAGAUACCUGUACUUGAUAUGCCCCAGACGACAUUCCCCCCACAUACUUUGUUGAUCCAAUGACUCACUUUCACUGUCCUU
modifications: pRNA-HER2apt(mut)-siMED1, p1; pRNA-HER2apt(mut)-siMED1, p2
Q: With B2 as the molecule, how does the “cellular uptake by flow cytometry” value read?
A: notably decreased the uptake efficiency

Q: And the “binding and internalization into cells” value?
A: dramatically impaired
